In test [1] the target is human SNAP_GLP1R (SNAP-tagged glucagon-like peptide-1 receptor) (human) (UniProt P43220). Description: fluorescent ligand labelling of cells, confocal microscopy; transiently transfected YFP-AD293-SNAP_GLP1R cells; increasing concentrations of compound applied for 60 min; control cells without GLP1R.
Test [2] has the same target.

Sequence of human SNAP_GLP1R (SNAP-tagged glucagon-like peptide-1 receptor) (human) (P43220 24-463): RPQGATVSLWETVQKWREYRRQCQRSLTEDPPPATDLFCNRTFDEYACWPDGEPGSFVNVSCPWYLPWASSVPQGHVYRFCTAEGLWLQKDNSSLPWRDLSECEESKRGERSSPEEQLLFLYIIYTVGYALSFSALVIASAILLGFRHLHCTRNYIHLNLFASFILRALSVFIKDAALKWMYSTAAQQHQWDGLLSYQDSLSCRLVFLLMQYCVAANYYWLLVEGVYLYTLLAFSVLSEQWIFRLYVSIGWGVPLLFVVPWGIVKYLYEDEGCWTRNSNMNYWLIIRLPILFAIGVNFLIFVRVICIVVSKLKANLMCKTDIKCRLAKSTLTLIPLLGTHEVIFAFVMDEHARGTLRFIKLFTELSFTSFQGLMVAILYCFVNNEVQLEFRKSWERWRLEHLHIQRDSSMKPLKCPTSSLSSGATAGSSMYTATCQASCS

LUXendin645 (peptide) showed a concentration of maximal labelling in test [1] of 250 to 500 nM. In addition, in test [2], the cAMP production (EC50) in HEK293-SNAP GLP1R cells, 30 min stimulation, with the positive allosteric modulator BETP (25 µM) came to 0.192 µM. As to LUXendin555 (peptide), the concentration of maximal labelling in test [1] was determined as 600 nM.
